Test results from patent US5543308.

Columns and labels:
[1] = test system: FseI restriction endonuclease (from pRMFseR2, NEB#943, ATCC 69707) (Frankia species NRRL 18528); test: cleavage_in_vitro; details: crude extract; estimated titer; substrate inferred from section 7
[2] = test system: FseI restriction endonuclease (from pRMFseR1, NEB#918, His at position 2) T2H (Frankia species NRRL 18528); test: cleavage_in_vitro; details: crude extract, NEBuffer 1, 30 C, 1 h; estimated titer

What does the source list for Adenovirus-2 DNA?
activity (units/g cells) [1]: > 10000; activity (units/g cells) [2]: > 10000
